In test [1] the target is T1, human CD27 (human, UniProt P26842 21-260).
T1 construct: also called hCD27; HsCD27
The test is described as follows: flow cytometry on transiently transfected CHO-K1 cells. For orientation: Flow cytometry measures light scatter and fluorescence of single cells or particles in a stream.

For test [2], the target named is T2, Macaca mulatta CD27 (mmCD27) (Macaca mulatta (rhesus) / Macaca …, UniProt P26842 21-260 (human entry)).
T2 construct: also called Rhesus CD27; rhesus monkey CD27
T2 chain: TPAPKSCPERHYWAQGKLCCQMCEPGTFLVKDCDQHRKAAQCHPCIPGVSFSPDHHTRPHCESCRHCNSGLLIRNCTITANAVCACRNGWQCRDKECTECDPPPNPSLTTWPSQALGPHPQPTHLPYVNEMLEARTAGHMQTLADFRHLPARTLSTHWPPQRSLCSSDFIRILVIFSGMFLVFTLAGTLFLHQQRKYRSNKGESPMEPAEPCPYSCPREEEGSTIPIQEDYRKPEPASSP
The description is as above.

For test [3], the target named is T1, human CD27. The test is described as follows: flow cytometry MFI, CD8+ T cells of human PBMC, N=2 donors.
Experimental: (§1) Labeled cells were washed by re-suspending them in 150 ul of staining buffer (SB) followed by centrifugation at 300 g for 5 minutes. Cells were then resuspended in 100 ul of SB containing primary anti-CD27 antibodies at various concentrations, incubated in the dark at 4° C. for 30 minutes, followed by washing and centrifugation steps as previously described. […] Cells were incubated for 30 minutes at 4° C. in the dark, followed by washing and centrifugation steps. Next, cells were stained with a cocktail of phenotypic antibodies for surface markers (CD3, CD4, CD8, CD11b) and incubated for 30 minutes at 4° C. in the dark, followed by washing and centrifugation steps. […] Samples were acquired in a LSR-Fortessa flow cytometer (BD Biosciences) using the high throughput sampler and data analyzed by FlowJo software (Tree Star Inc).
Test [4] has as its target T1, human CD27. The test is described as follows: flow cytometry MFI, CD8+ T cells in human peripheral blood, n=4.
Experimental: (§2) Upon receipt, blood was visually confirmed to be devoid of obvious signs of lysis or clotting. […] Red blood cells (RBCs) were then lysed by incubation with 1.7 mL of Ammonium-Chloride-Potassium red blood cell lysing solution (Life Technologies, catalog no. A10492-01) for 5 minutes. The lysis step was repeated once more with 2 ml of ACK lysing solution, and then again with 300 ml of ACK lysing solution. Cells were then washed after adding 1.7 ml of phosphate buffered saline (PBS) (Hyclone, catalog no. SH30028.02). […] After a final wash in SB, samples were acquired in a LSR-Fortessa flow cytometer (BD Biosciences) using the high throughput sampler and data analyzed by FlowJo software (Tree Star Inc).
Test [5] has as its target T3, human CD27 (A59T) (human, UniProt P26842 21-260).
T3 construct: also called hCD27 (A59T); human CD27 variant p.Ala59Thr
Nature of the test: cell ELISA on CD27-transfected CHOK1 cells, n=2. On the technique in general: ELISA stands for enzyme-linked immunosorbent assay.
Experimental: (§3) Purified antibodies were assayed for binding to human CD27 expressing CHOK1 cells, human CD27 A59T expressing CHOK1 cells, and cross-reactivity to rhesus CD27 expressing CHOK1 cells using a cell-based ELISA format. Human CD27 expressing CHOK1 cells, human CD27 A59T expressing CHOK1 cells, and rhesus CD27 expressing CHOK1 cells were plated in 96-well tissue-culture plates in 50 μl of DMEM/F12, 10% BCS and gentamycin (CHO-K1 media). Cells were plated at either 2×10⁴ cells/well two days prior to the assay or 4×10⁴ cells/well one day prior to the assay. Media was removed from the wells prior to the assay followed by incubation of mAb in 100 μL fresh culture medium at a starting concentration of 10 μg/mL and 8 step 1:4 serial dilutions. The antibodies were incubated for 30-60 minutes at room temperature and washed 3 times with PBS/0.05% Tween 20 using a cell ELISA washing protocol on the Biotek EL405x Select CW plate washer. […] Assay plates were washed as above and developed with TMB and stopped with TMB stop solution (KPL cat#50-85-06) or 0.1N phosphoric acid. The plate was read on a Molecular Devices VersaMax plate reader at 450 nm/650 nm. Titration curves were used to determine the half-maximal effective concentration (EC₅₀).

Test [6] concerns the target T2, Macaca mulatta CD27 (mmCD27). Nature of the test: cell ELISA on CD27-transfected CHOK1 cells, n=2.
Experimental: as §3
For test [7], the target named is T1, human CD27. The test is described as follows: cell ELISA on CD27-transfected CHOK1 cells, n=2.
Experimental: as §3
Test [8] concerns the target T2, Macaca mulatta CD27 (mmCD27). Nature of the test: flow cytometry MFI, CD4+ T cells in rhesus peripheral blood, n=4.
Experimental: as §2
Test [9] addresses T4, human CD27 A59T-Fc fusion protein (human, UniProt P26842 21-191).
T4 construct: not shown: Fc part
T4 chain: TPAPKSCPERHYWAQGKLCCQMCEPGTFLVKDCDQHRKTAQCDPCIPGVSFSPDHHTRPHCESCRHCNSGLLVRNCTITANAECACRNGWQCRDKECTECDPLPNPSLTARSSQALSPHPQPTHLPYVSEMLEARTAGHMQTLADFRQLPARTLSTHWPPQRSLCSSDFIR
The test is described as follows: SPR Biacore T200, CD27-Fc amine-coupled, antibody injected, 1:1 Langmuir fit.

In test [10] the target is T5, human CD27-Fc fusion protein (human, UniProt P26842 21-191).
T5 construct: not shown: Fc part
The description is as above.

In test [11] the target is T6, rhesus macaque CD27-Fc fusion protein (rhesus macaque, UniProt P26842 21-191 (human entry), limits assumed).
T6 construct: not shown: Fc part
T6 chain: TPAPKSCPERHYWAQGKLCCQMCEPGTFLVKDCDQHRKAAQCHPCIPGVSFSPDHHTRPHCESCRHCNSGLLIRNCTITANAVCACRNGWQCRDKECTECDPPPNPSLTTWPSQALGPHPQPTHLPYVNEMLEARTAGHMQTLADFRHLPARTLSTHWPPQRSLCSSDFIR
Described as above.

The target in test [12] is T1, human CD27. The test is described as follows: flow cytometry MFI, CD4+ T cells in human peripheral blood, n=4.
Experimental: as §2
Test [13] has as its target T2, Macaca mulatta CD27 (mmCD27). Nature of the test: flow cytometry MFI, CD8+ T cells in rhesus peripheral blood, n=4.
Experimental: as §2
Test [14] concerns the target T1, human CD27. The test is described as follows: cell ELISA on human CD27 CHOK1 cells, hIgG1.
Experimental: Purified antibodies were assayed for binding to human CD27 expressing CHOK1 cells using a cell-based ELISA format. Human CD27 expressing CHOK1 cells were plated in 96-well tissue-culture plates in 50 μl of DMEM/F12, 10% BCS (bovine calf serum) (CHO-K1 media). Cells were plated at either 2×10⁴ cells/well two days prior to the assay or 4×10⁴ cells/well one day prior to the assay. Media was removed from the wells prior to the assay followed by incubation of mAb in 100 μL fresh culture medium at a starting concentration of 10 μg/mL and 8 step 1:5 serial dilutions (hIgG4 antibodies) or starting concentration of 50 μg/mL and 8 step 1:5 serial dilutions (hIgG1 antibodies). The antibodies were incubated for 30-60 minutes at room temperature and washed 3 times with PBS/0.05% Tween 20 using a cell ELISA washing protocol on the Biotek EL405x Select CW plate washer.
Test [15] concerns the target T2, Macaca mulatta CD27 (mmCD27). Nature of the test: cell-based or functional assay.
The target of test [16] is T3, human CD27 (A59T). The test is described as follows: cell-based or functional assay.
For test [17], the target named is T2, Macaca mulatta CD27 (mmCD27). Nature of the test: cell-based or functional assay.
Test [18] deals with T1, human CD27. The test is described as follows: cell-based or functional assay.
The target in test [19] is T7, His9G-tagged cynomolgus CD27 recombinant protein (cynomolgus, limits assumed).
T7 construct: In-house, transient transfection of HEK293 cells; also called Cyno CD27/His
T7 chain: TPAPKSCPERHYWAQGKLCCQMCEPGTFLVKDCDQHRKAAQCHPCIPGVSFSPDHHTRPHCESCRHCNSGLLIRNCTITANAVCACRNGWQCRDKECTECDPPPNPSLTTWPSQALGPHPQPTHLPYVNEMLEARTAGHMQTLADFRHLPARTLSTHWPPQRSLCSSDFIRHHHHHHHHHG
The test is described as follows: SPR Biacore 4000, antibody captured on anti-human Fc, His9G-tagged CD27 injected, 1:1 fit.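 Further: Double-referenced SPR (blank anti-Fc surface and buffer injection subtracted), KD derived from association and dissociation rate constants, with human and cynomolgus CD27 as analytes.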 On the technique in general: In SPR one partner is held on a chip, and binding of the other changes the refractive index at the surface.
Text: (§4) Flow cell spots modified with anti-human Fc antibody but lacking CD27 antibodies were used as reference. […] The chip surface was regenerated with a 30 second injection of 3M MgCl₂ after each injection cycle.
(§5) Data were double referenced by subtracting the response from a blank surface and that from a buffer injection and used for analyzing the rate constant of association (kₐ) and dissociation (kd), and the equilibrium dissociation constant KD. The resulting data sets were fitted with a Langmuir 1:1 binding model using the Biacore 4000 BIAevaluation software, version 1.0 (GE/Biacore).

Test [20] addresses T8, His9G-tagged human CD27 recombinant protein (human, UniProt P26842 21-191).
T8 construct: In-house, transient transfection of HEK293 cells; also called Human CD27/His
The description is as above.
Text: as §4, §5

For test [21], the target named is T1, human CD27. Nature of the test: flow cytometry MFI, CD4+ T cells of human PBMC, N=2 donors.
Experimental: as §1

In general, EC50 refers to the concentration that produces a half-maximal response. Higher therefore signals a need for much substance. As usually defined, the Kd is the concentration at which binding is half-saturated.

B1: hCD27.15-c4 (antibody, human IgG4 S228P, kappa, V domains shown)
VH: EVRLQQSGADLVKPGASVKLSCTASGFIIKATYMHWVRQRPEQGLEWIGRIDPANGETKYDPKFQVKATITADTSSSTAYLQLNSLTSDDTAVYYCARYAWYFDVWGAGTTVTVSS
VL: DIQMTQSPASLSASVGDTVTITCRASENIYSFLAWYHQKQGRSPQLLVYHAKTLAEGVPSRFSGSGSGTQFSLKINSLQAEDFGSYYCQHYYGSPLTFGAGTKLEVKR
notes: also called hCD27.15 (chimeric c-4); C4-hCD27.15 chimeric antibody
Regarding B1, the values for the binding result in [1] and in test [2] were “binds” and “no binding”, respectively.

B2: 131AVH6VL6-hIgG1 (antibody)
heavy: not shown
light: EIVLTQSPATLSLSPGERATLSCSASSSVSYMHWYQQKPGQAPKRWIYDTSKLASGVPARFSGSGSGTDYSLTISSLEPEDFAVYYCQQWNSYPFTFGQGTKLEIKRTVAAPSVFIFPPSDEQLKSGTASVVCLLNNFYPREAKVQWKVDNALQSGNSQESVTEQDSKDSTYSLSSTLTLSKADYEKHKVYACEVTHQGLSSPVTKSFNRGEC
notes: also called hCD27.131A VH6VL6 huIgG1
For B2, the EC50 in test [3] was 123 pM; in test [4], 300 pM; in test [5], 97 pM; in test [6], 54 pM; in test [7] it was 72 pM; in test [8] it was 170 pM. The 50% effective concentration (EC50) is 320 pM in [12], 220 pM in test [13], 155 pM in test [14] and 137 pM in test [21]. For the same molecule, the Kd is 7300 pM in test [9]; 5100 pM in test [10]; 4300 pM in test [11]; 51500 pM in test [19]; 65200 pM in test [20]. The “NF-κB-luciferase reporter assay, potency against human CD27” value in test [15] is around 7 fold. Also, the figures for the “NF-κB-luciferase reporter assay, EC50” value in test [16], in [17] and in [18] were 4720 pM, 290 pM and 2220 pM, respectively. The “NF-κB-luciferase reporter assay, Emax” value worked out at 3.22 fold change in test [16], 2.11 fold change in test [17] and 2.96 fold change in [18].
